Experimental data published in publication PMC3267840.

Tests used:
Assay in all cases: purified protein
NCCc1ccc(O)c(O)c1 = type: biochemical, Tribolium castaneum; conditions: pH 6.0, 0.1 M Mes
CC(=O)NCCc1ccc(O)c(O)c1 = type: biochemical, Tribolium castaneum; conditions: pH 5.5, 0.1 M sodium acetate
Oc1ccccc1O = type: biochemical, Tribolium castaneum; conditions: pH 5.5, 0.1 M sodium acetate (pH optimum not determined)
[1] = test system: NCCC(=O)NCCc1ccc(O)c(O)c1; type: biochemical, Tribolium castaneum; conditions: pH 5.5, 0.1 M sodium acetate
Oc1ccc(O)cc1 = type: biochemical, Tribolium castaneum; conditions: pH 5.5, 0.1 M sodium acetate (pH optimum not determined)
purified protein [2] = substrate: Oc1ccc(O)cc1; type: biochemical, Anopheles gambiae; conditions: pH 5.5, 0.1 M sodium acetate (pH optimum not determined)
purified protein [3] = substrate: NCCC(=O)NCCc1ccc(O)c(O)c1; type: biochemical, Anopheles gambiae; conditions: pH 5.5, 0.1 M sodium acetate
purified protein [4] = substrate: NCCc1ccc(O)c(O)c1; type: biochemical, Anopheles gambiae
purified protein [5] = substrate: CC(=O)NCCc1ccc(O)c(O)c1; type: biochemical, Anopheles gambiae
purified protein [6] = substrate: Oc1ccccc1O; type: biochemical, Anopheles gambiae; conditions: pH 5.5, 0.1 M sodium acetate (pH optimum not determined)
purified protein [7] = substrate: N[C@@H](Cc1ccc(O)c(O)c1)C(=O)O; type: biochemical, Manduca sexta; conditions: pH 6.0, 0.1 M Mes, 0.1 % cetylpyridinium as activator
purified protein [8] = substrate: Oc1ccc(O)cc1; type: biochemical, Tribolium castaneum; conditions: pH 5.5, 0.1 M sodium acetate (pH optimum not determined); remark: listed apart in the source
purified protein [9] = substrate: NCCC(=O)NCCc1ccc(O)c(O)c1; type: biochemical, Tribolium castaneum; conditions: pH 5.5, 0.1 M sodium acetate; remark: listed apart in the source
purified protein [10] = substrate: NCCc1ccc(O)c(O)c1; type: biochemical, Tribolium castaneum; conditions: pH 5.5, 0.1 M sodium acetate
purified protein [11] = substrate: CC(=O)NCCc1ccc(O)c(O)c1; type: biochemical, Tribolium castaneum; conditions: pH 5.5, 0.1 M sodium acetate; remark: listed apart in the source
purified protein [12] = substrate: Oc1ccccc1O; type: biochemical, Tribolium castaneum; conditions: pH 5.5, 0.1 M sodium acetate (pH optimum not determined); remark: listed apart in the source

With “TcLac2B (Tribolium castaneum; G182D/T93A)” the Km (NCCc1ccc(O)c(O)c1) was 2000 µM, the kcat (NCCc1ccc(O)c(O)c1) was 7.5 s⁻¹ and the kcat/Km (NCCc1ccc(O)c(O)c1) was 3750 M⁻¹ s⁻¹. The Km (CC(=O)NCCc1ccc(O)c(O)c1) was 600 µM, the kcat (CC(=O)NCCc1ccc(O)c(O)c1) was 5.5 s⁻¹ and the kcat/Km (CC(=O)NCCc1ccc(O)c(O)c1) was 9170 M⁻¹ s⁻¹. For the same molecule, the Km (Oc1ccccc1O) was 12000 µM, the kcat (Oc1ccccc1O) was 10.8 s⁻¹ and the kcat/Km (Oc1ccccc1O) was 900 M⁻¹ s⁻¹. For the same molecule, the Km [1] was 4000 µM, the kcat [1] was 18.8 s⁻¹ and the kcat/Km [1] was 4700 M⁻¹ s⁻¹. For the same molecule, the Km (Oc1ccc(O)cc1) was 2000 µM, the kcat (Oc1ccc(O)cc1) was 9.2 s⁻¹ and the kcat/Km (Oc1ccc(O)cc1) was 4600 M⁻¹ s⁻¹.

B1: AgMCO2B (Anopheles gambiae) (protein)
chain: VRVQQHTSRRFKDESFGHDQTPAGSWWSSHLTEPPSNFYQATHGLLQTHPSVPSLKPVAGAPAAPGPSALPLSSRKSPTVSSAAALNSGFPSIANPNPRSPFRHLDFSTSATAELRRNPSLSAPDECARACREGEPPRICYYHFTVEYYTVLGAACQVCTPNATNTVWSHCQCVLADGVERGILTVNRMIPGPSIQVCENDRVVIDVENHMEGMELTIHWHGIWQRGTQYYDGVPFVTQCPIQQGNTFRYQWTGNAGTHFWHAHTGLQKLDGLYGSIVVRQPPSRDPNSHLYDFDLTTHIMLVSDWLHEDAAERYPGRLAVNTGQDPESLLINGKGQFRDPNTGFMTNTPLEIFTITPGRRYRFRMINAFASVCPAQVTIEGHALTVIATDGEPVHPVQVNTIISFSGERYDFVITADQPVGAYWIQLRGLGECGIKRAQQLAILRYARGPYQPASPPPTYDVGLPQGVVMNPLDAVCNVPRPDAVCVSNLRNAKKADKAVLSERPDVKIFLPFRFYFYRVEELFTPNTYNKFLVAPGGDHLISLIDEISYVSPPSPMLSQINDIPPEQFCNGDNRPPDCGPNCMCTHKVDIPLNAIVEVVLVDEVQQENLSHPFHLHGHAFHVIGMGRSPDSTVKKINLRHTLDLDRRGLLNRQFNLPPLKDTIAVPNNGYVVLRFRADNPGYWLFHCHFQFHIVIGMNLVVHIGTHADLPPVPPNFPRCGNHIPPIKYN
B1 showed a Km (purified protein [2]) of 800 µM, a kcat (purified protein [2]) of 4.2 s⁻¹ and a kcat/Km (purified protein [2]) of 5250 M⁻¹ s⁻¹. The Km (purified protein [3]) was 2000 µM, the kcat (purified protein [3]) was 6.35 s⁻¹ and the kcat/Km (purified protein [3]) was 3170 M⁻¹ s⁻¹. For the same molecule, the Km (purified protein [4]; pH 5.5, 0.1 M sodium acetate) was 300 µM, the kcat (purified protein [4]; pH 5.5, 0.1 M sodium acetate) was 1.05 s⁻¹ and the kcat/Km (purified protein [4]; pH 5.5, 0.1 M sodium acetate) was 3500 M⁻¹ s⁻¹. For the same molecule, the Km (purified protein [5]; pH 5.0, 0.1 M sodium acetate) was 700 µM, the kcat (purified protein [5]; pH 5.0, 0.1 M sodium acetate) was 2.12 s⁻¹ and the kcat/Km (purified protein [5]; pH 5.0, 0.1 M sodium acetate) was 3020 M⁻¹ s⁻¹. For the same molecule, the Km (purified protein [6]) was 4000 µM, the kcat (purified protein [6]) was 2.98 s⁻¹ and the kcat/Km (purified protein [6]) was 750 M⁻¹ s⁻¹.

B2: phenoloxidase (prophenoloxidase from M. sexta hemolymph) (Manduca sexta) (protein)
chain 1: TDAKNNLLYFFDRPNEPCFMQKGEDKVVFEIPDHYYPDKYKSLSNTLSNRFGNEATKRIPIRNITLPNLEVPMQLPYNDQFSLFVPKHRTMAAKLIDIFMGMRDVEDLQSVCSYCQLRINPYMFNYCLSVAILHRPDTKGLSIPTFAETFPDKFMDSKVFLRAREVSNVVISGSRMPVNVPINYTANTTEPEQRVAYFREDIGINLHHWHWHLVYPFDSADRSIVNKDRRGELFYYMHQQIIGRYNVERMCNGLPQVKPFSDFSAPIEEGYFPKLDSQVASRTWPPRFAGSVFRNLDRTVDQVKIDVRKLFTWRDQFLEAIQKMAIKMPNGRELPLDEVTGIDMLGNLMESSIISPNRGYYGDLHNMGHVFAAYTHDPDHRHLEQFGVMGDSATAMRDPFFYRWHRFVDDVFNIYKEKLTPYTNERLDFPGVRVSSVGIEGARPNTLRTLWQQSTVELGRGLDFTPRGSVLARFTHLQHDEFQYVIEVNNTTGGNLMGTVRIFMAPKVDDNGQPMSFNKQRRLMIELDKFSQALRPGTNTIRRRSVDSSVTIPYERTFRNQSERPGDPGTAGAAEFDFCGCGWPHHMLIPKGTAQGYPVVLFVMISNWNNDRIEQDLVGSCNDAASYCGIRDRKYPDKQAMGYPFDRKMANDAATLSDFLRPNMAVRDCSIQFSDTTVERGQQG
chain 2: ADIFDSFELLYDRPGEPMINTKGEDKVLFELTEQFLTPEYANNGLELNNRFGDEEEVSRKIILKNLDKIPEFPKAKQLPNDADFSLFLPSHQEMANEVIDVLMSVTENQLQELLSTCVYARINLNPQLFNYCYTVAIMHRRDTGKVRVQNYAEIFPAKFLDSQVFTQAREAAAVIPKTIPRTPIIIPRDYTATDLEEEHRLAYWREDLGINLHHWHWHLVYPFSASDEKIVAKDRRGELFFYMHQQIIARYNCERLCNSLKRVKKFSDWREPIPEAYYPKLDSLTSARGWPPRQAGMRWQDLKRPVDGLNVTIDDMERYRRNIEEAIATGNVILPDKSTKKLDIDMLGNMMEASVLSPNRDLYGSIHNNMHSFSAYMHDPEHRYLESFGVIADEATTMRDPFFYRVHAWVDDIFQSFKEAPHNVRPYSRSQLENPGVQVTSVAVESAGGQQNVLNTFWMQSDVNLSKGLDFSDRGPVYARFTHLNHRPFRYVIKANNTASARRTTVRIFIAPKTDERNLPWALSDQRKMFIEMDRFVVPLSAGENTITRQSTESSLTIPFEQTFRDLSIQGSDPRRSELAAFNYCGCGWPQHMLVPKGTVGGVAYQLFVMLSNYELDKIEQPDGRELSCVEASMFCGLKDKKYPDARPMGYPFDRPSNSATNIEDFSAMSNMGLQDIVIKLSDVTEPNPRNPPA
B2 was tested, and the Km (purified protein [7]) was 2000 µM and the kcat (purified protein [7]) was 6.02 s⁻¹.

B3: AgMCO2A (Anopheles gambiae) (protein)
chain: VRVQQHTSRRFKDESFGHDQTPAGSWWSSHLTEPPSNFYQATHGLLQTHPSVPSLKPVAGAPAAPGPSALPLSSRKSPTVSSAAALNSGFPSIANPNPRSPFRHLDFSTSATAELRRNPSLSAPDECARACREGEPPRICYYHFTVEYYTVLGAACQVCTPNATNTVWSHCQCVLADGVERGILTVNRMIPGPSIQVCENDRVVIDVENHMEGMELTIHWHGIWQRGTQYYDGVPFVTQCPIQQGNTFRYQWTGNAGTHFWHAHTGLQKLDGLYGSIVVRQPPSRDPNSHLYDFDLTTHIMLVSDWLHEDAAERYPGRLAVNTGQDPESLLINGKGQFRDPNTGFMTNTPLEIFTITPGRRYRFRMINAFASVCPAQVTIEGHALTVIATDGEPVHPAQVNTIISFSGERYDFVITADQPVGAYWIQLRGLGECGIKRAQQLAILRYARGPYQPASPPPTYDVGLPQGVVMNPLDAQCNVQRDDAICVSQLKNAKEIDRALLQDKPDVKIFLPFRFYLYRPEELFQPNTYNRFLVAPTGDHVISLIDEISYLSAPAPLLSQYDDINPEQFCNGDNRPADCGANCMCTHKVDIPLNAIVEVVLVDEVQQPNLSHPFHLHGYAYNVVGIGRSPDSNVKKINLKHALDLDRRGLLHRQYNLPPLKDTIAVPNNGYVVLRFRADNPGFWLFHCHFLFHIVIGMNLILQVGTHADLPPVPPNFPTCGDHLPPIN
B3 was tested, and the Km (purified protein [2]) was 2000 µM, the kcat (purified protein [2]) was 3.82 s⁻¹ and the kcat/Km (purified protein [2]) was 1900 M⁻¹ s⁻¹. It also gave a Km (purified protein [3]) of 1000 µM, a kcat (purified protein [3]) of 3.65 s⁻¹ and a kcat/Km (purified protein [3]) of 3650 M⁻¹ s⁻¹. For the same molecule, the Km (purified protein [4]; pH 7.5, 0.1 M sodium phosphate) was 500 µM, the kcat (purified protein [4]; pH 7.5, 0.1 M sodium phosphate) was 0.8 s⁻¹ and the kcat/Km (purified protein [4]; pH 7.5, 0.1 M sodium phosphate) was 1600 M⁻¹ s⁻¹. The Km (purified protein [5]; pH 5.5, 0.1 M sodium acetate) was 300 µM, the kcat (purified protein [5]; pH 5.5, 0.1 M sodium acetate) was 1.53 s⁻¹ and the kcat/Km (purified protein [5]; pH 5.5, 0.1 M sodium acetate) was 5120 M⁻¹ s⁻¹.

B4: TcLac2A (Tribolium castaneum) (protein)
chain: VRAPGAKKKVGPIDQSAAAASWHDFDNSDFFQSEHAVIQTHPSIGGGPRFSSGGGRKAWKHLDFRNSAAAELLKNPSLSSPDECARACREGEPPRICYYHFTLELYTVLGAACQVCTPNATNTVWSHCQCVLADGVERGILTANRMIPGPSIQVCEGDKVVIDVENHIEGNEVTLHWHGVWQRGSQYYDGVPFVTQCPIQQGNTFRYQWIAGNAGTHFWHAHTGLQKMDGLYGSVVIRQPPAKDPNSHLYDYDLTTHVMLLSDWMHEDATERFPGRLAVNTGQDPESLLINGKGQFRDPNTGFMTNTPLEVFTITPGRRYRFRMINSFASVCPAQLTIQGHDLTLIATDGEPVHPVRVNTIISFSGERYDFVINADQTPGAYWIQLRGLGECGIRRVQQLGILRYAKGPYQPSQAPPTYDYGIPQGVVLNPLDARCNEIRPDAICVSQLKNALSIDKGILREKPDVKIFLPFRFHIYTPEDLFAPNTYNRHLVAPNGDHVISLIDEISYMAPPAPLISQYDDIDPQQFCNGDNRPADCQQNCMCTHKVDIPLNAIVEIVLVDEVQQPNLSHPFHLHGYAFNVIGIGRSPDQNVKKINLKHALDLDRQGLLHRQFNLPPAKDTIAVPNNGYVVLRLRANNPGFWLFHCHFLFHIVIGMNLVLQVGTHADLPPVPPNFPTCGDHVPEINSNPNLV
Work on B4 yielded a Km (purified protein [8]) of 1000 µM, a kcat (purified protein [8]) of 3.55 s⁻¹ and a kcat/Km (purified protein [8]) of 3550 M⁻¹ s⁻¹. It also gave a Km (purified protein [9]) of 1000 µM, a kcat (purified protein [9]) of 2.75 s⁻¹ and a kcat/Km (purified protein [9]) of 2750 M⁻¹ s⁻¹. It also gave a Km (purified protein [10]) of 800 µM, a kcat (purified protein [10]) of 0.683 s⁻¹ and a kcat/Km (purified protein [10]) of 850 M⁻¹ s⁻¹. It also gave a Km (purified protein [11]) of 700 µM, a kcat (purified protein [11]) of 2.45 s⁻¹ and a kcat/Km (purified protein [11]) of 3500 M⁻¹ s⁻¹. For the same molecule, the Km (purified protein [12]) was 6000 µM, the kcat (purified protein [12]) was 4.03 s⁻¹ and the kcat/Km (purified protein [12]) was 667 M⁻¹ s⁻¹.
